± gives the standard deviation of the averaged measurements.
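Further: ATP exposure 15 min at 22 °C before imaging.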

For the data set, the system named is ATP. Kind of data set: switch fluorescence ratio, 500 uM ATP over buffer (Cy3 cluster intensity, sum of 5 cycles each) (fold (ratio)); higher = stronger signal-on switching upon ATP binding; sequences stand for … in TCGTCGGCAGCGTCAGATGTGTATAAGAGACAGTTTTTTTTTTTTTTTTTTTTTTTTT…TC. As to conditions: aptamer strand: ATP DNA aptamer (quencher-CACCTGGGGGAGTATTGCGGAGGAAGG + anchor), 100 nM annealed; ATP concentration: 500 uM. In a few lines:
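Cy3-labelled switching-strand clusters on a modified Illumina MiSeq flow-cell were annealed to 100 nM quencher-labelled ATP aptamer, imaged in selection buffer, then imaged after 15 min with 500 uM ATP at 22 °C. Five buffer/ATP cycles ran, with NaOH stripping and re-annealing between them. The fluorescence ratio is summed target-cycle over summed buffer-cycle Cy3 intensity per cluster, averaged per switch-domain sequence. Clusters outside 100-1000 RFU were excluded.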
Consider AAGTTTTGAG, for which the switch fluorescence ratio is 1.03 ± 0.019.
For the sequence AAGTTTTTCC, the switch fluorescence ratio came out at 1.04 ± 0.021.
Consider CCGTAGAATT, for which the switch fluorescence ratio came to 1.68 ± 0.046.
As for ATGGCAGGAT, the switch fluorescence ratio is 1 ± 0.063.
Take TTGGTTTCGT: the switch fluorescence ratio worked out at 1.022 ± 0.0059.
ATTCGAGTGT: the switch fluorescence ratio was 0.984 ± 0.018.
CGTTGGTTCA: the switch fluorescence ratio turned out to be 1 ± 0.023.
In the case of GCGGGAAATT, the switch fluorescence ratio is 1 ± 0.03.
Take GTGAGCCGGG: the switch fluorescence ratio stood at 1.01 ± 0.014.
On to TGTTTGATGT, for which the switch fluorescence ratio was 0.983 ± 0.019.
Regarding GCGGGGGGCA, the switch fluorescence ratio turned out to be 1.03 ± 0.055.
In the case of TTTAGTAGTT, the switch fluorescence ratio stood at 1.01 ± 0.017.
As for CGTTTTTTTT, the switch fluorescence ratio was found to be 0.989 ± 0.02.
To AAACTATGGA belongs 0.961 ± 0.022; to AAAAACGGGG, 1.009 ± 0.0075; to TTGTGGAAAT, 1 ± 0.069.
To GGGGATGAAT belongs 1 ± 0.024.
To ATGTATTTGG belongs 1.01 ± 0.014; to ACCGTTAGGT, 0.951 ± 0.037.
Regarding ACGGTCACCC, the switch fluorescence ratio came out at 1.66 ± 0.07.
TGGGAAAGAA: the switch fluorescence ratio came out at 1.04 ± 0.068.
As to TGTTGTAGCT, the switch fluorescence ratio came to 1.02 ± 0.031.
Take GACCCGCTAA: the switch fluorescence ratio was found to be 4.18 ± 0.3.
As to CGCCGATATA, the switch fluorescence ratio was 1.12 ± 0.063.
AGTTTGACTC: the switch fluorescence ratio turned out to be 0.997 ± 0.026.
As for AGTCAAAAAG, the switch fluorescence ratio turned out to be 0.985 ± 0.051.
Regarding CGGTTGGCGT, the switch fluorescence ratio stood at 1.04 ± 0.088.
As to TTCCTTGGAT, the switch fluorescence ratio was 1.015 ± 0.0019.
In the case of TTTAAGTTTG, the switch fluorescence ratio is 0.989 ± 0.029.
Consider CGGGTAAAGG, for which the switch fluorescence ratio was 0.9441 ± 0.0076.
Turning to CAGGGGCAGC, the switch fluorescence ratio turned out to be 0.927 ± 0.05.
As for CAGTTGGGGT, the switch fluorescence ratio was determined as 0.997 ± 0.022.
Take GATGGGGGTA: the switch fluorescence ratio worked out at 0.973 ± 0.033.
To GAGGGAGGCA belongs 0.994 ± 0.019.
In the case of TTTTTTCGAG, the switch fluorescence ratio is 1 ± 0.05.
On to ACGGTTGATG, for which the switch fluorescence ratio came to 0.986 ± 0.021.
On to TAAAAGAAGA, for which the switch fluorescence ratio is 0.962 ± 0.016.
Turning to TTGGAGGTGG, the switch fluorescence ratio was determined as 0.959 ± 0.031.
TTAGAGACTG: the switch fluorescence ratio amounted to 1.08 ± 0.11.
Regarding ACCGGTTGCC, the switch fluorescence ratio came to 0.974 ± 0.058.
To AAGGGAACGG belongs 0.971 ± 0.022.
To TTTAATTATG belongs 1.02 ± 0.034.
To CTGGGGGAAC belongs 1.004 ± 0.0049; to GGGGGGGGAG, 1.01 ± 0.03.
Take TGAGGGGAGG: the switch fluorescence ratio worked out at 1.13 ± 0.15.
Regarding AGGGTTGACT, the switch fluorescence ratio was found to be 0.964 ± 0.012.
For the sequence TTGAACGGGA, the switch fluorescence ratio came out at 1.01 ± 0.044.
Take CCAAAGCTAG: the switch fluorescence ratio came to 2.1 ± 0.028.
With ATTGAAATTT, the switch fluorescence ratio came out at 1.05 ± 0.093.
ATTCACACGC: the switch fluorescence ratio came out at 1.06 ± 0.017.
Take GAGCACGTTT: the switch fluorescence ratio came to 0.9963 ± 0.0072.
Regarding CTGATAGGAT, the switch fluorescence ratio is 1.22 ± 0.37.
CACTAAGTGG: the switch fluorescence ratio was 1.025 ± 0.0023.
As for GAGTACTTTG, the switch fluorescence ratio worked out at 0.9847 ± 0.0015.
For the sequence CGTATTACAC, the switch fluorescence ratio was 1.045 ± 0.0033.
In the case of CGGAAACTTT, the switch fluorescence ratio was 1.0088 ± 0.00067.
To TTGCGGGTGG belongs 1.01 ± 0.028; to GGGCCATGTA, 1 ± 0.034.
Turning to AGGGGCCCGC, the switch fluorescence ratio worked out at 0.98 ± 0.018.
Take GCCAATACCA: the switch fluorescence ratio turned out to be 1.22 ± 0.013.
For CGGTGGGGAT, the switch fluorescence ratio amounted to 1.02 ± 0.046.
With TCGGGAACGA, the switch fluorescence ratio amounted to 0.999 ± 0.028.
Consider AGTCGGGGGG, for which the switch fluorescence ratio was 0.989 ± 0.021.
For AAGGGGGGAG, the switch fluorescence ratio came out at 0.986 ± 0.026.
CGGTTTGGTA: the switch fluorescence ratio was determined as 0.976 ± 0.014.
For GGGAACGTTT, the switch fluorescence ratio turned out to be 0.993 ± 0.011.
For AAGTTTGGGG, the switch fluorescence ratio is 0.983 ± 0.043.
In the case of GCGGGTAGCG, the switch fluorescence ratio was found to be 0.983 ± 0.022.
To AATTTCATGT belongs 1.01 ± 0.012; to TATGGGGGGT, 0.976 ± 0.017; to TTGGCTATTT, 0.9981 ± 0.0075.
Take TGGTCTTCTC: the switch fluorescence ratio was 1.16 ± 0.26.
Regarding ATTGGGCAAT, the switch fluorescence ratio is 1.054 ± 0.0023.
In the case of CCGGTAGGGA, the switch fluorescence ratio came out at 1.01 ± 0.021.
With TCTGGGAAGG, the switch fluorescence ratio came out at 1.01 ± 0.042.
Regarding ATGACTTACG, the switch fluorescence ratio amounted to 1.08 ± 0.02.
Regarding TTGGGGAATT, the switch fluorescence ratio was determined as 1 ± 0.019.
On to TCAAACTTTA, for which the switch fluorescence ratio was 1.03 ± 0.025.

(Values after the supplement of paper PMC10126150.)
